According to the nanobody polyreactivity screen of Harvey et al. (2022):

Assay: yeast display, Sf9 membrane polyspecificity reagent, FACS + sequencing; frameworks hold sequencing errors
Method in brief: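 Nanobodies came from a synthetic yeast display library in Saccharomyces cerevisiae BJ5465, induced with galactose for 36–48 hours and stained for 1 hour at 4 °C with 10% biotinylated, detergent-solubilized Sf9 membrane reagent. Cells were enriched on streptavidin microbeads and then FACS-sorted, with low and high (top ~1%) gates set on anti-HA fluorescence for expression and streptavidin fluorescence for reagent binding. Each polyreactivity label reflects the gate a clone came from. Genes were amplified by colony PCR, sequenced by MiSeq 2 × 250 and filtered by CDR length.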

Sequence | polyreactivity (PSR sort gate)
QVQLVESGGGLVHAGGSLRLSCAASGSIFDYYAMGWYRQAPGKERELVAAISTSTSSTYYADSVKGRFTISRDNAKNTVCLQMNSLKPEDTAVYYCAAEGESQPESPGYDYWGQGTQVTVSS | low polyreactivity
QVQLVESGGGLVQAGGSLPLSCAASGSTFNKYTMGWSRQPPGKERELVAAITSGDSTYYADSVKGRFTISRDNAKNTVYLQMNSLKPDDTAVYYCAKSLRAYRHVIYGKPFYSWGQGTQVTVSS | low polyreactivity
QVQLVESGGGLVQAGGSLRLSCAASGRTLYVNAMGSYRQAPGKERELVARISSGSSTNYADSVKGRFTISRDNAKNTVYLQMNSLKPEHTAVYYCAARYTARRQSYGYWGQGTQVTVSS | high polyreactivity
QVQLVESGGGLVLAGGSLRLICAGSGRIFYTNTMGWYRQAPWKGRELVAAIRSGTRTYYADSVKGRFTISRDNAKNTFYLLMNILKPEATAVYYCAAYYSYYGGDYWGQGTQVTVSS | low polyreactivity
QDQLVESGGGLVQAGGSLRLSCAASGATYRNNAMGWYRQAPGKERELVAAISRGGGSTYYADSVNGRFTISRDNAKNNVYLQMNSLKPEDTAVYYCARRPTGIYDYWGQGTQVTVSS | high polyreactivity
QVQLVESGGGLVQAGGSLRLSCAASGFIFYRNTMGWYRQAPGKERELVAANSVSGGSTNYADSVKGRFTISRDNAKNTVYLQMNSLKPEDSAVYYCAARVRDSLVYGGWDDYWGQGTQVTVSS | high polyreactivity
QVQLVESGAGLVQAGGSLRLSCAASGYIFGQNAMGWYRQAPGKERELVASISDGGSTYYADSVKGRFTISRDNAKNTVYLQMNSLKPEDTAVYYCAAGQDWGEKALGAWLFDYWGHGTQVTVSS | low polyreactivity
QVQLVESGGGLVQAGGSLRLSCAASGRTFSGYAMGWYRPAPGKERELVAAITSGGNTYYADSVKGRFTISRDNAKNTVYFQMNILKPEDTAVYYCATVYADESGIEGYSWGQGTQVTVSS | low polyreactivity
QVQLVESGGGLVQAGGSLRLSCAASGSTFYLYPMGWLRQAPGKERELVAAIRQSGGSTYYADSVKGRFTISRDNAKNTVYLQMNSLKPEDTAVYYCAARPSYRLGQRYYYWGQGTQVTVSS | high polyreactivity
QVQLVESGGGLVQAGGSLRLSCAASGGTFSTYAMGWYRQAPGKERELVAAISWRGGSTYYADSVKGRFTISRDNAKNTVYLQMNSLKPEDTAVYYCAAYYSRGWLLYWDEMSYWGQGTQVTVSS | high polyreactivity
QVQLVESGGGLVQAGGSLRLSCAASGNILYDNAMGSYRQAPGKERELVAAIDWSGGSTYYADSVKGRFTISRDNAKNTVYLQMNSLKPEDTAVYYCAAESYIGKYGSYDYWGLGTQVTVSS | low polyreactivity
QVQLVESGGGLVQAGGSLRLSCAASGRIFGNYAMGWYRQAPGKERELVAAISGGGSTYYADSVKGRFTISRDNAKNTVYLQMNSLKPEDTAVYYCAARFLWSVFGHKGGYWGQGTQVTVSS | low polyreactivity
QVHLVESGGGLVQAGGSLRLSCAASGRTFSAYAMGWYRQAPGKEREDVAAISRSGGSTYYADSVKGRFPISRDNAKNTVYLQMNILTPEDTAVSDCAVRWPSARIPVKLEDWGQGTQVTVSS | high polyreactivity
QVQLVESGGGLVQAGGSLRLSCAASGRTFYGYALGWYRQAPGKERELVAAISDDASTYYADSVKGRFTISRDNAKNTVYLQMNSLKPEDTAVYYCAAEPEWPYGRFDYWGQGTQVTVSS | high polyreactivity
QVQLVESGGGLVQAGGSLRLSCAASGSIFGLYAMGWSRQAPGKERELVASITGGGGTYYADSVKGRFTISRDNAKNTVYLQMNSLKPEDTAVYYCAAALYFGGDSYYYWGQGTQVTVSS | low polyreactivity
QVQLEESGGGLVQAGGSLRLSCAASGNTFTEYAMGWYRPAPGKEWELVASITGSGGSTYADSVKGRFTISRDNAKNSVYLQMNSLIAEDTAVYYCAKDTRYEYVGSEYGYWGQGTQVTVSS | low polyreactivity
QVLLVDSGGGLVQAGGSLRLSCAASGRIFGPYTMARYIQAPGPERELVAAISWSGGSTYYADSVKGRFTISRDNAKNNVFLQMNSLKPEDSAVYYCNAYHPFPQYEGGSWGQGTQVTVSS | low polyreactivity
QVQLVESGGGLVQAGGSLRLSCAASGSTFVNYAMGWYRQAPGKERELVAAITANGGRTYYADSVKGRFTISRDNAKNTVYLQMNSLKPEDTAVYYCNTESNLYRRRRNYWGQGTQVTVSS | low polyreactivity
QVQLVESGGGLVQAGGSLRLSCAASGFIFSYYAMGWYRQAPGKERELVAAITVTGGNTYYADSVKGRFTISRDNAKNTVYLQMNSLKPEDTAVYYCAAVVRGPGVSVYYWGQGTQVSVSS | low polyreactivity
QVQLVESGGGLVQAGGSLRLSCAASGYILTHYAMGWYRQAPGKERELVAAITRVGNSNYADSVKGRFTISRDNAKNTVYLQMNSLKPEDTAVYYCAADGVASLFGDPPTEFDYWGQGTQVTVSS | low polyreactivity
QVQLVESGGGLVQAGGSLRLSCAASGITFIRYAMGWYRQAPGKERELVAVITRSGGRTYYADSVKGRFTISRDNAKNTVYLQMNSLKPEDTAVYYCAARAYGYDEYEYWGQGTQVTVSS | high polyreactivity
QVQIVESGGGLVQAGCSLRLSCAASGSTFLSNAMGLYRQAPGKERELVATNSFSRATYADSVKGRFTISRDNAKNTVYLQMNSLKPVDTAVYYCNRATINFSGKGDTAYDYWGQGTQVTVSS | low polyreactivity

Sequence | polyreactivity (PSR sort gate)
QVQRVESGGGLVQAGGTLRLSCAASGNTFDYYAMGWYRQAPGKERELVAAIRYRGGTTYYADSVKGRFTISRDNAKNTVYLQMNSLKPEDTAVYYCAARYVPYSRRYNYWGQGTQVTVSS | high polyreactivity
QVQLVESGGGLVQAGGSLRLSCAASGSTFLSYAMGWYRQAPGHERELVAAISIAGSTYYADSVKGRFTISRANAKNTVYLQMHSLKPEDTAVDYCRRYYRIYDYWGQGTQVTVSS | low polyreactivity
QVQLVESGGGLVQAGGSLRLSCAASGIIFPLYMGWDRQAPGTERVLVAAINSIGGRTYYADSVKGRFTISRDNAKNTVYLQMNSLKPEDTAVYYCNAVPVGWRYRQYDYWGQGTQVTVSS | high polyreactivity
QVQLVESGGGLVQAGGSLRLSCAASGSTLNDYTMGWYRQAPGKERELVAAIRVSGARTFYADSVKGRFTISRDNAKNTVYLQMNSLKPEDTAVYYCAARWYIANPLSPSDYWGQGTQVTVSS | low polyreactivity
QVQLVESGGGLVQAGGSLRLSCAASGSTLVKYAMGWYRQAPGKERELVAAISWSGGRTYYADSVKGRFTISRDNAKNNVYLQMNSLKPEDTAVYYCAARRKAVRYDYWGQGTQVTVSS | high polyreactivity
QVQLVESGGGLVQAGGSLRLSCAASGFIFGFNAMGWYRQAPGKERELVAVISARGGRTYYADSVKGRFTISRDNAKNTVYLQMNSLKPEDTAVYYCAADDFFRYFFTHWVGDDYWGQGTQVTVSS | low polyreactivity
QVQLVESGGGLVKAGGSLRLSCAASGRTFVYNAMGWYRQAPGKERELVADIDGGGDRTYYADSVKGRFTISRDNAKNKVFLQMNSLKPEDTAVYYCARDPGDTYYYSYPEGDYWGQGTQVTVSS | low polyreactivity
QVQLVESGGGLVQAGGSLRLSCAASGNTFRWYAMGWYRQAPGKEREFVADITVRGGSTYYADSVKGRFTISRDNAKNTVYLQMNSLKPEDTAVYYCAVDFRRYPGFDYWGQGTQVTVSS | low polyreactivity
QVQLVESGGGLVQAGGSLRLSCAASGIIFNSYAMGWYRQAPGKERELVAAISRSGTSTYYADSVKGRFTISRDNAKNTVYLQMNSLKPEDTAVYYCNVARGYYSYSSRIDYYWGQGTQVTVSS | high polyreactivity
QVQLVESGGGLVQAGGSLRLSCAASGSIDWNAMGWYRQAPGKEREFVAAISSSGGRTSYADSVKGRFTISRDNAKNTVYLQMNSLKPEDTAVYYCAAAGSYDGDRYYYWGQGTQVTVSS | high polyreactivity
QVQLVESGGGLVQAGGSLRLSCAASGSIFYLNAMGWYRMAPGKERELVATISNGGSTNYADSVKGRFTISRDNAKNTVYLQMNSLKPEDTAVYYCAAASGGTVVGEGDYWGQGTQVTVSS | low polyreactivity
QVQLVESGGGIVQAGGSLRLRWAASGLTSVRNAMGWYRQAPGKERELVAGISWSGGRTYYADSVKGRFTISRDNEKNTVYLQMNSLKPEDTGVYYCNKVRAYYTQEGSWGQGTQVTVSS | high polyreactivity
QVQLVESGGGLVQAGGSLRLSCAASGSIFSRYAMGWYRQAPGKERELVAAITWSGGSTYYADSVKGRFTISRDNAKNTVYLQMNSLKPEDTAVYYCAAVGYAPYNHRYDYWGQGTQVTVSS | low polyreactivity
QVQLVESGGGLVKAGGSLRLSCAASGYTFLFNVMGWYRQAPGKEREIFATIRYSGGSTYYADSVKGRFTISRDNAKNTVYLQMNSLKPEDTAVYYCAARYAWYTSYCSRKYDYWGQGTQVTVSS | high polyreactivity
QVQLVESGGGLVQAGGSLRLSCAASGRTFGYNGMGWYRQAPGKEREFVAAITWSGGRTYYADSVKGRFTISRDKAKNTVYLQMNSLKPEDTAVYYCAAGKYRYTYYALEYDYWGQGTQVTVSS | low polyreactivity
QVQLVESGGGLVQAGGSLRLSCAASGFTFRYYAMGWYRKAPGKERELVAAITRRGGSKYYADSVKGRFTISRDNAKNTVYLQMNSLKPEDTAVYDCAASLWTTSADYDYWGQGTQVTVSS | high polyreactivity
QVQLKDSGCGLVQAGGSLRLSCAASGTISYRYRMGWYREAPRKELELVAGISFGSITYYADSVKGRFTISRDNAKNTVYLQMNSLKPVDIAVYYCAVYQKSYRFFPYWGQGTQVTVSS | high polyreactivity
QVQLVESGGGLVQAGGSLRLSCAASGFIFSYYAMGWYRPAPGKEREFVAAISRRGGSTYYADSVKGRFTISRDNAKNTVYLQMNSLKPEDTAVFYCARRRTSTAVREHYYRDWYGYDFWGQGTQVTVSS | high polyreactivity
QVQLVESGGGLVQAGGSLRLSCAASGITFYRYAMGWYRQAPGKERELVATITSGGSTYYADSVKGRFTISRDNAKNTVYLQMNSLKPEDTAVYYCAAESVWTWYYTTAGMDYWGQGTQVTVSS | high polyreactivity
KDQLVESGGGLVQAGGSLRLSCAASGLTFGGNAMGWYRQAPGKERELVAGISSSGNTNDADSVKGRFTISRDNAKNTVYLQLNSLKPEDTAVYYCAADENITYPVYDLYYWGQGTQVTVSS | low polyreactivity
QVQLVESGGGLVQAGGSLRLSCAASGYIFLRNALGWYRQAPGKERELVAAIRRTGGSTYYADSVKGRFTISRDNAKNTVYLQMNSLKPEDTAVYYCAKRSYTGYEYWGQGTQVTVSS | low polyreactivity
